Source: US20140314667A1, “METHODS OF TREATING EPIDERMAL GROWTH FACTOR DELETION MUTANT VIII RELATED DISORDERS” (AMGEN INC., priority 2011, published 2014)

T1: OVA (Gallus gallus, UniProt P01012)
T1 sequence (P01012 1-386): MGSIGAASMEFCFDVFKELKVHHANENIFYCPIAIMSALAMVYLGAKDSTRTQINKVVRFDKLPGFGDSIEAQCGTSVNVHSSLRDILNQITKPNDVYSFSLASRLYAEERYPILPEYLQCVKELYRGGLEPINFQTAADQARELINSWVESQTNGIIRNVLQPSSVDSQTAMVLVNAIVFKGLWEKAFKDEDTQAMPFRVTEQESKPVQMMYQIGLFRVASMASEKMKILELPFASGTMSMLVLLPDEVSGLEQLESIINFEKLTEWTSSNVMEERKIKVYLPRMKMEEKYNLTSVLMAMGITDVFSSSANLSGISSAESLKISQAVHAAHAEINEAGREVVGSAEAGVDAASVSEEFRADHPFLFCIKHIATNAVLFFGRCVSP


Legend:
EGFRvIII-peptide-OVA = molecular target: T2, EGFRvIII-peptide-OVA (Homo sapiens, UniProt P00533, DELINS30-297G); assay: B-cell culture supernatant ELISA on EGFRvIII-peptide-OVA; format: binding; settings: for binding with the pep3: XenoMax approach, in words
T2 construct: 207 μg of EGFRvIII PEP3 was reduced; host or cells: synthetic peptide, chemical conjugation
Protocol: B-cells from the above-discussed animals were harvested and cultured. Those secreting EGFRvIII-peptide specific antibodies were isolated as described in Babcook et al., Proc. Natl. Acad. Sci. USA, 93:7843-7848 (1996). ELISA was used to identify primary EGFRvIII-peptide-OVA-specific wells. About 5 million B-cells were cultured from XenoMouse animals in 24596 well plates at 500 or 150 or 50 cells/well, and were screened on EGFRvIII-peptide-OVA to identify the antigen-specific wells.
(§1) 244 of EGFRvIII-peptide-OVA-Elisa positive wells of OD >0.5 were screened again on EGFRvIII-peptide-OVA and on OVA to confirm that they were EGFRvIII-peptide specific.

[1] = molecular target: T3, NR6 Wt cells (NR6 cells expressing EGF receptor) (Homo sapiens, UniProt P00533); assay: Native cell binding assay by FMAT, NR6 Wt cells; settings: for cross-reactivity with wild type EGFR: XenoMax approach, in words
T3 construct: expressed in transfected cells; host or cells: NR6 cells (NR6 Wt)
From the text: The same type of native binding assay was done on NR6 Wt cells (NR6 cells expressing EGF receptor) (See Batra et al. Epidermal growth factor ligand-independent, unregulated, cell-transforming potential of a naturally occurring human mutant EGFRvIII gene. Cell Growth Differ. 6(10):1251-9 (1995)) to eliminate the binding is due to binding to Wt receptor (Table 3.8). ABX-EGF was used as a positive control and PK 16.3.1 at the same concentration was used as a negative control antibody. 3 out the 134 NR6 M binders were binding strongly to NR6 Wt cells. 190 of the 244 wells bound EGFRvIII peptide in Elisa were also bound to the native form on cells.
In this example, binding of anti-EGFRvIII antibodies to NR6 M cells was measured. Specifically, unquantitated supernatants of XenoMax derived IgG1 recombinant antibodies were assayed for their ability to bind to NR6 M and NR6 WT cells. Cells were seeded at 10000/well and incubated overnight at 37 C in FMAT 96 well plates. Media was removed and 40 μl mini lipo supernatant (titrated down) was added, the cells were incubated on ice for 1 hr. […] The PK 16.3.1 antibody was used as a negative control. The cells were washed with Cold PBS, secondary antibody was added (SS Alexa antihuman IgG Fc) at 1 μg/ml, 40 μl/well and incubated on ice for 1 hr. The cells were then washed with Cold PBS and fixed and read by FMAT. All antibodies were tested for specificity for binding by counter screening against NR6 WT cells.

[2] = molecular target: T4, EGFRvIII receptor in NR6 M cells (Homo sapiens, UniProt P00533, DELINS30-297G); assay: Internalization of EGFRvIII receptor by recombinant mAbs (FACS); format: cell-based; settings: 0.25 μg/ml antibody, 1 hr
T4 construct: NR6 M cells stably expressing full length EGFRvIII; expressed in transfected cells; host or cells: NR6 cells (NR6 M)
Protocol: XenoMax derived IgG1 recombinant antibodies were expressed, purified and quantitated as described previously. Antibodies were further assayed for their ability to internalize the EGFRvIII receptor in NR6 M cells. […] The cells were washed with cold 10% FCS in PBS and secondary antibody (SS Alexa antihuman IgG Fab) at 3 μg/ml Fab was added and incubated for 7 mins on ice. The cells were washed with cold 10% FCS in PBS once and then resuspended in cold media. Next, two sets of the triplicate were incubated at 37° C. and the remaining set was incubated at 4° C. for 1 hr. After that the cells incubated at 4° C. and one set of the cells incubated at 37° C. were treated with glutathione (as previously mentioned) for 1 hr on ice. Then the cells were washed and resuspended in 100 μl of cold 1% FCS in PBS and analyzed by FACS. The % internalization was calculated from the geometric mean obtained from the FACS analysis [(mean at 37° C. with glutathione−mean at 4° C. with glutathione)/(mean at 37° C. without glutathione−mean at 4 C with glutathione)].

OVA = molecular target: T1, OVA; assay: B-cell culture supernatant ELISA on OVA (specificity control); format: binding; settings: Table 3.8
From the text: as §1

[3] = molecular target: T5, native form of EGFRvIII stably expressed on NR6 cells (NR6 M cells) (Homo sapiens, UniProt P00533, DELINS30-297G); assay: Native cell binding assay by FMAT, NR6 M cells; settings: total fluorescent intensity
T5 construct: NR6 M cells stably expressing full length EGFRvIII; expressed in transfected cells; host or cells: NR6 cells (NR6 M)
Protocol: EGFRvIII peptide-OVA-Elisa positive well supernatants were analyzed for their ability to bind to the native form of EGFRvIII stably expressed on NR6 cells (NR6 M cells) (See, Batra et al. Epidermal growth factor ligand-independent, unregulated, cell-transforming potential of a naturally occurring human mutant EGFRvIII gene. Cell Growth Differ. 6(10):1251-9 (1995)). NR 6 M cells were seeded at 8000 cells per well and incubated over night in 96 well FMAT plates. Media was then removed leaving 15 μl in the well. 15 μl B-cell culture supernatants were added and 15 μl anti-human IgG Fc Cy5 at 1 μg/ml final concentration added to wells. It is then left incubated at 4° C. for 2 hours. The cells were washed with 150 μl PBS, and fixed before reading on FMAT. The results were expressed as total fluorescent intensity (Table 3.8).

[4] = molecular target: T6, EGFRvIII receptor on NR6 M cells (Homo sapiens, UniProt P00533, DELINS30-297G); assay: Internalization assay (FMAT, glutathione) of B cell culture supernatants; format: cell-based; settings: for % internalized, (glut+/glut−) × 100 / With glutathione FL1xcount: 37° C. for 30 mins; for With glutathione FL1xcount: 50 mM glutathione; for No glutathione FL1xcount: kept on ice
T6 construct: NR6 M cells stably expressing full length EGFRvIII; expressed in transfected cells; host or cells: NR6 cells (NR6 M)
Protocol: The top 60 native binding B cell culture supernatants were further assayed for their ability to internalize the receptor. NR6 M cells were seeded at 8000 cells/well into 96 well FMAT plates and incubated overnight. Media was removed and 10-15 μl B-Cell culture supernatant in a total volume of 30 μl media, in duplicate was added. Next, 15 μl of secondary antibody (SS Alexa 647 anti-human IgG Fab at 1.5 μg/ml final concentration) was added and the mixture was incubated on ice for 1 hr. An irrelevant B-Cell Culture supernatant was used to see the effect of the culture media. Human anti-EGFRvIII mAb 13.2.1 was used as a positive control starting at 1 μg/ml (final concentration) and negative control was PK 16.3.1 (human anti-KLH IgG2 antibody) at the same concentration. After incubation, the cells were washed with cold PBS, 50 μl media was added to all of the wells, one of the duplicates were incubated at 37° C. for 30 mins while the other duplicate remained on ice. After the incubations media was removed, 100 ul of cold 50 mM glutathione was added to the set incubated at 37° C. and 100 μl of cold media added to the other set, both sets were then left on ice for 1 hr. The cells were then washed with 100 μl cold PBS and then fixed with 1% paraformaldehyde and read in FMAT. The results were expressed as % internalized, calculated as total fluorescence in the presence of glutathione/total fluorescence in the absence of glutathione×100.

| Molecule | binding with the pep3 (EGFRvIII-peptide-OVA) | cross-reactivity with wild type EGFR [1] | FACS Geometric mean With glutathione 4° C. [2] | FACS Geometric mean With glutathione 37° C. [2] | % internalized, (glut+/glut−) × 100 [4] [%] | With glutathione FL1xcount [4] | No glutathione FL1xcount [4] | also measured |
| --- | --- | --- | --- | --- | --- | --- | --- | --- |
| 095: XenoMax derived anti-EGFRvIII antibody, SEQ ID NO: 7/23 (antibody, listed as Homo sapiens, V domains shown) VH: QVQLQESGPFLVKPSQTLSLTCTVSGGSISSGGYYWSWIRQHPGKGLEWIGFIYYRGNTYYNPSLKSRVTISVDTSKNQFSLKLSSVTAADTAVYYCARDGYCSRTGCYGGWFDPWGQGTLVTVSP VL: DIVMTQTPLSSPVTLGQPASISCRSSQSLIHTDGNIYLSWLQQRPGQPPRLLIYKISNRFSGVPDRFSGSGAGTDFTLKISRVEAEDVGVYYCMQGTQFPITFGQGTRLEIK | highly specific | limited cross-reactivity with wild type EGFR | 5.13 | 17.75 |  |  |  |  |
| 150: XenoMax derived anti-EGFRvIII antibody, SEQ ID NO: 5/21 (antibody, listed as Homo sapiens, V domains shown) VH: QVQLQQSGPGLVKPSQTLSLTCAISGDSVSSYSSAWNWIRQSPSRGLEWLGRAYHRSRWYYEYAVSVKSRINITPDTSKNQFSLQLNSVTPEDTAVYYCARGSRFDYWGQGTLVTVSS VL: DIVMTQTPLSSPVTLGQPASISCRSSQSLVHRDGNTYLSWLQQRPGQPPRLLIYKISNRFSGVPDRFSGSGAGTDFTLKISRVEAEDVGIYFCMHTTQFPWTFGQGTRVEIK |  |  | 4.66 | 7.78 |  |  |  |  |
| 333: XenoMax derived anti-EGFRvIII antibody, SEQ ID NO: 17/32 (antibody, listed as Homo sapiens, V domains shown) VH: QVQLVESGGGVVQPGRSLRLSCVASGFTLSSYGMHWVRQALGKGLEWVAVTSYDGSKKDYADSVKGRFTISRDNSKNTLYLQMNSLRAEDTAVYYCVSEGYCDSTSCYKYYYYGMDVWGQGTTVTVSS VL: DIVMTQSPLSLPVTPGEPASISCRSSQSLLYRNGNNYLDWYLQRPGQSPQLLIYLGSNRASGVPDRFSGSGSGTDFTLKISRVEAEDVGVYYCMQALQTPRTFGQGTKVEIK |  |  |  |  | 37.1 | 13293 | 35820 | 1′ VIII-pep-OVA OD (EGFRvIII-peptide-OVA; Table 3.8): 0.8555; 2′ VIII-pep-OVA OD (EGFRvIII-peptide-OVA; Table 3.8): 1.2070; OVA OD (OVA): 0.1649; FMAT native binding to NR6 M cells [3]: 109379; FMAT native binding to NR6 Wt cells ([1]; total fluorescent intensity): 0 |
| 211: XenoMax derived anti-EGFRvIII antibody, SEQ ID NO: 12/28 (antibody, listed as Homo sapiens, V domains shown) VH: QVQLVESGGGVVQPGRSLRLSCVASGFTLSSYGMHWVRQAPGKGLEWVAVTSYDGSKKDYADSAKGRFTISRDNSKNTLYLQMNSLRAEDTAVYYCVSEGYCSSSSCYKYYYYGMDVWGQGTTVTVSS VL: DIVMTQSPLSLPVTPGEPASISCRSSQSLLYRNGNNYLDWYLQRPGQSPQLLIYLGSNRASGVPDRFSGSGSGTDFTLKISRVEAEDVGVYYCMQALQTPRTFGQGTKVEIK |  |  | 4.78 | 8.23 |  |  |  |  |
| 250: XenoMax derived anti-EGFRvIII antibody, SEQ ID NO: 9/26 (antibody, listed as Homo sapiens, V domains shown) VH: EGQLLESGGGWVQPGESLRLSCAASGFTFSSYAMSWVRQAPGKGLEWVSAISGSGGSTNYADSVKGRFTISRDNSKNTLYLQVNSLRVEDTAVYYCAGSSGWSEYWGQGTLVTVSS VL: DIQMTQSPSSLSASVGDSVTITCRTSQGIRKNLGWYQQKPGKAPKRLIYAASSLQSGVPSRFSGSGSGTEFTLTISRLQPEDFATYYCLQHHSYPLTFGGGTRVEIR | highly specific | limited cross-reactivity with wild type EGFR | 4.84 | 8.07 |  |  |  |  |
| 170: XenoMax derived anti-EGFRvIII antibody, SEQ ID NO: 4/20 (antibody, listed as Homo sapiens, V domains shown) VH: QVQLQQSGPGLVKPSQTLSLTCAISGDSVSSNNAAWNWIRQSPARGLEWLGRTYYRSKWYNDYVVSVKSRITINPDTSKNQFSLQLNSVTPEDTAVYYCVRATAFDYWGQGTLVTVSS VL: AIVLTQTPLSSPVTLGQPASISCRSSQSLVHRDGNTYLSWLQQRPGQPPRLLIYKISNRFSGVPDRFSGSGAGTDFTLKISRVEPDDVGVYYCMHTTQLPWTFGQGTKVEIK |  |  | 4.67 | 7.75 | 52.8 | 1236 | 2342 |  |
